Our source for the ratio to parent values is publication PMC5361195.

Sequences and labels used below:
B1: Flag-tagged wild-type A2 domain of coagulation factor VIII (pED-Flag-A2) [human] / calreticulin [not stated (endogenous in COS-1 or HEK293T cells)] (parent)
chain 1: KTWVHYIAAEEEDWDYAPLVLAPDDRSYKSQYLNNGPQRIGRKYKKVRFMAYTDETFKTREAIQHESGILGPLLYGEVGDTLLIIFKNQASRPYNIYPHGITDVRPLYSRRLPKGVKHLKDFPILPGEIFKYKWTVTVEDGPTKSDPRCLTRYYSSFVNMERDLASGLIGPLLICYKESVDQRGNQIMSDKRNVILFSVFDENRSWYLTENIQRFLPNPAGVQLEDPEFQASNIMHSINGYVFDSLQLSVCLHEVAYWYILSIGAQTDFLSVFFSGYTFKHKMVYEDTLTLFPFSGETVFMSMENPGLWILGCHNSDFRNRGMTALLKVSSC
chain 2: EPAVYFKEQFLDGDGWTSRWIESKHKSDFGKFVLSSGKFYGDEEKDKGLQTSQDARFYALSASFEPFSNKGQTLVVQFTVKHEQNIDCGGGYVKLFPNSLDQTDMHGDSEYNIMFGPDICGPGTKKVHVIFNYKGKNVLINKDIRCKDDEFTHLYTLIVRPDNTYEVKIDNSQVESGSLEDDWDFLPPKKIKDPDASKPEDWDERAKIDDPTDSKPEDWDKPEHIPDPDAKKPEDWDEEMDGEWEPPVIQNPEYKGEWKPRQIDNPDYKGTWIHPEIDNPEYSPDPSIYAYDNFGVLGLDLWQVKSGTIFDNFLITNDEAYAEEFGNETWGVTKAAEKQMKDKQDEEQRLKEEEEDKKRKEEEEAEDKEDDEDKDEDEEDEEDKEEDEEEDVPGQAKDEL

In this assay the parent is B1. Kind of assay: co-immunoprecipitation (anti-Flag IP, immunoblot densitometry). Conditions: with calreticulin [not stated (endogenous in COS-1 or HEK293T cells)]; 36 h after transfection; n = 3; parent: 1; read off a plot. For orientation: Immunoblotting shows a protein as a band on a membrane.
With chain 1 D201V, the ratio to parent is 1.1.
In the case of chain 1 D201H, the ratio to parent was found to be 2.2.
chain 1 N203D: the ratio to parent was found to be 0.92.
As for chain 1 S205T, the ratio to parent was found to be 2.3.
